Results: article PMC9364023, “In vitro single molecule and bulk phase studies reveal the AP-1 transcription factor cFos binds to DNA without its partner cJun” (The Journal of Biological Chemistry, 2022)
Where no end group is shown, it is not given here.

Columns and labels:
[1] = target: cFos bZIP region (137-193) synthetic peptide, C-terminally biotin-tagged (human); assay: Qdot blinking analysis of single molecules on DNA tightropes; Qdot 655 conjugates only; blinks counted in 50 kymographs of 60 s for each protein; dual Poisson model fitted to cJun and cFos together; HSABC buffer; monomer to dimer on DNA
[2] = target: cFos bZIP region (137-193) synthetic peptide, C-terminally biotin-tagged (human); assay: dual-colour single-molecule fluorescence imaging on DNA tightropes; biotinylated peptide conjugated to premixed equimolar streptavidin Qdot 605 and Qdot 655 (100 nM peptide, 200 nM Qdots, diluted 50-fold); bound to Lambda DNA tightropes; HSABC buffer (50 mM Tris pH 7.5, 150 mM KCl, 10 mM MgCl2); room temperature (20 C); dual-coloured spots counted among DNA-bound molecules; monomer to dimer on DNA
[3] = target: the molecule itself; assay: as above

percent dimer (fit of Qdot blinking) [1] | percent of DNA-bound entities that were dual-colored [2] | percent of DNA-bound molecules dimerized [2] | stoichiometry N [2] | Molecule | stoichiometry N [3]
45.8% | 15% | 30% | 2 | cFos bZIP region (137-193) synthetic peptide, C-terminally biotin-tagged | –
– | – | – | – | cJun bZIP region (252-308) synthetic peptide, C-terminally biotin-tagged (bZIP region of cJun, residues 252-308 as stated; gly-ala-pro spacer before the C-terminal biotin; In the tightrope assays the peptide was conjugated through its biotin to streptavidin-coated Qdot 655 and/or Qdot 605; It holds the bZIP domain only; source: synthetic peptide (PeptideSynthetics)) RIKAERKRMRNRIAASKCRKRKLERIARLEEKVKTLKAQNYELASTANMLREQVAQLGAP-biotin | 2
